In publication PMC2789240, “Comparative structural, kinetic and inhibitor studies of Trypanosoma brucei trypanothione reductase with T. cruzi^” (Molecular and Biochemical Parasitology, 2010):

Tested on: N[C@@H](CCC(=O)N[C@H]1CSSC[C@H](NC(=O)CC[C@H](N)C(=O)O)C(=O)NCC(=O)NCCCNCCCCNC(=O)CNC1=O)C(=O)O
Assay: purified protein, by the assay type
Conditions: pH 7.4, 25.0 °C

**Q.** How did the Km (other: 340 nm assay) turn out when “TbTryR (Trypanosoma brucei brucei TREU927)” was run?
**A.** 6.9 ± 0.7 µM

**Q.** How did the Km (other: saturating NADPH) turn out when “TbTryR (recombinant T. b. brucei trypanothione reductase) (Trypanosoma brucei brucei TREU927)” was run?
**A.** 2.35 ± 0.07 µM
